Results as given in US7439329B2, “GEF-H1b: biomarkers, complexes assays and therapeutic uses thereof” (Sugen, Inc., priority 2002, dated 2008).

Columns and labels:
Format in all cases: cell-based, mouse
[1] = tested on: NIH-3T3 cells; assay: Anchorage independent survival and proliferation (XTT assay); conditions: over-expression in NIH-3T3; vessels which prevent adherence
Description: A stably expressing clone designated 192.58 containing GEF-H1S was established in the mouse fibroblast cell line, NIH-3T3. The pRSV/Rc subcloned vector expresses the GEF-H1S protein in tissue culture cells.
The GEF-H1S clones were plated in tissue culture vessels which prevent adherence. […] The ability for cells to proliferate was measured using the tetrazolium salt XTT based assay (Roche Molecular Biochemicals Cat# 1465015) which measured only metabolically active cells in culture. Measurements were made over a time course.

[2] = tested on: NIH-3T3 cells; assay: Morphology and localization in transfected NIH-3T3 cells (EGFP fluorescence, F-actin and microtubule staining)
Description: To analyse the effect of GEF-H1 on cell morphology in fibroblasts, EGFP (enhanced green fluorescent protein) fusion constructs of GEF-H1S and a series of mutant alleles of the PAK4 phosphorylation sites in GEF-H1S were introduced into NIH-3T3 cells. Also constructed, was a dominant negative allele by mutating the DH domain of GEF-H1 resulting in GEF-H-QR312,313MG. In a p21-binding domain (PBD) assay this dominant-negative allele inhibited accumulation of Rac-GTP but not Cdc42-GTP in NIH-3T3 cells. The actin cytoskeleton was stained with coumarin-phallicidin to contrast F-actin structures of EGFP fluorescing cells by microscopy.
Induction of F-actin structures in fibroblasts, namely the formation of filopodia, lamellipodia, and stress fibres is due to signalling by the active forms of Cdc42, Rac, and Rho, respectively. Because PAK proteins and specifically PAK4 play a role in regulating F-actin based morphological structures, experiments were devised to determine whether PAK4-induced changes in cell morphology were mediated by regulation of GEF-H1S. Also co-expressed were EGFP-GEF-H1 constructs with various HA epitope-tagged PAK4 alleles in NIH-3T3 cells. Exogenous PAK4 was detected with an anti-HA antibody (red) and the actin cytoskeleton was stained with coumarin-phallicidin (blue). Although NIH-3T3 cells have low but detectable levels of endogenous PAK4 and GEF-H1 these were not activated under the conditions of the experiment.
Residues phosphorylated by PAK4 in GEF-H1S are conserved in the MT (“microtubule”) bound form of GEF-H1, “GEF-H1M.” GEF-H1M contains a zinc finger domain in its amino terminus that allows it to bind to microtubules. The role microtubule binding in determining the ability of PAK4 to control GEF-H1M activity was investigated. Studies were performed with GEF-H1M that allowed simultaneous examination of both MT (through EGFP-GEF-H1M labelling of MTs in vivo) and actin cytoskeleton (through F-actin staining with coumarin-phallicidin). Also studied, were changes in the MT cytoskeleton by co-staining with β-tubulin antibodies.
GEF-H1S alleles were transiently expressed in NIH-3T3 cells or simultaneously expressed with PAK4 alleles. The GEF-H1S alleles were retrieved from the pcDNA vector by restriction with EcoR1 and Xho1 and inserted into pEGFP-C1 (Clontech,USA Cat#6082-1) restricted with EcoR1 and Sal1. The resulting protein was a hybrid of the brightly fluorescent protein, green fluorescent protein (GFP). The effects on cell morphology were traced by staining of F-actin with coumarin phallacidin (Molecular Probes, USA, Cat. # C-606). […] See, Callow et al., 2002. This finding was consistent with GEF-H1S being a substrate for PAK4, because activated PAK4 is also localized to the Golgi apparatus.
NIH-3T3, 293T, A549, HCT116 and H1299 cells were maintained in Dulbecco's modified Eagles medium (DMEM) 10% Fetal Bovine serum (FBS), penicillin and streptomycin from Invitrogen (Carlsbad, Calif.). For transfection, cells were seeded at 10^5 cells ml-1 for NIH-3T3 and […] for both 293T and H1299 unless otherwise stated. Transfection reagents Lipofectamine 2000 (Invitrogen) or Fugene (Roche Molecular) were used at […] of plasmid DNA. Cellular extracts for immunoblotting were prepared in lysis buffer. For immunoprecipitation experiments lysates were incubated with Protein G beads (Pharmacia) linked with appropriate antibody, glutathione sepharose beads (Pharmacia) with appropriate GST fusion protein and streptavidin beads (Pierce) linked to appropriate biotinylated peptides. For immunofluorescence, coverslips were placed in 24 well cell culture vessels and seeded at the densities above. Transfections took place after 16 h and unless otherwise stated were maintained in Optimem or DMEM with 0.2% FBS for 24 h until fixation. Microscopy was performed on a Nikon E800 microscope with 60× objective (1.5NA). […]

[3] = tested on: NIH-3T3 cells; assay: In vitro transformation (foci) assay
[4] = GEF-H1 allele alone, majority of transfected cells
[5] = co-expressed with PAK4 allele PAK4
[6] = co-expressed with PAK4 allele PAK4K350,351A
[7] = co-expressed with PAK4 allele PAK4S474E

B1: GEF-H1S: novel GEF-H1 splice isoform, residues 1-921, lacking N-terminal zinc finger domain (SEQ ID NO. 2) (protein)
chain: MPVTRASQPRKPSSAQQQKAALLKNNTALQSVSLRSKTTIRERPSSAIYPSDSFRQSLLGSRRGRSSLSLAKSVSTTNIAGHFNDESPLGLRRILSQSTDSLNMRNRTLSVESLIDEAEVIYSELMSDFEMDEKDFAADSWSLAVDSSFLQQHKKEVMKQQDVIYELIQTELHHVRTLKIMTRLFRTGMLEELHLEPGVVQGLFPCVDELSDIHTRFLSQLLERRRQALCPGSTRNFVIHRLGDLLISQFSGPSAEQMCKTYSEFCSRHSKALKLYKELYARDKRFQQFIRKVTRPAVLKRHGVQECILLVTQRITKYPLLISRILQHSHGIEEERQDLTTALGLVKELLSNVDEGIYQLEKGARLQEIYNRMDPRAQTPVPGKGPFGREELLRRKLIHDGCLLWKTATGRFKDVLVLLMTDVLVFLQEKDQKYIFPTLDKPSVVSLQNLIVRDIANQEKGMFLISAAPPEMYEVHTASRDDRSTWIRVIQQSVRTCPSREDFPLIETEDEAYLRRIKMELQQKDRALVELLREKVGLFAEMTHFQAEEDGGSGMALPTLPRGLFRSESLESPRGERLLQDAIREVEGLKDLLVGPGVELLLTPREPALPLEPDSGGNTSPGVTANGEARTFNGSIELCRADSDSSQRDRNGNQLRSPQEEALQRLVNLYGLLHGLQAAVAQQDTLMEARFPEGPERREKLCRANSRDGEAGRAGAAPVAPEKQATELALLQRQHALLQEELRRCRRLGEERATEAGSLEARLRESEQARALLEREAEEARRQLAALGQTEPLPAEAPWARRPVDPRRRSLPAGDALYLSFNPPQPSRGTDRLDLPVTTRSVHRNFEDRERQELGSPEERLQDSSDPDTGSEEEGSSRLSPPHSPRGETLAETWTRDFTRMQDIPEETESRDGEAVASES
[1]
  anchorage independent survival and proliferation: anchorage independent
[2]; [4]
  F-actin: occassional stress fibers
  Microtubule: radial array
  cell morphology: polarized
[2]; GFP fusion transiently expressed in NIH-3T3 cells
  subcellular localization: localized at the perinuclear region of the Golgi apparatus
[2]; [5]
  F-actin: extreme filopodia
  Microtubule: radial array
  cell morphology: contracted
[2]; [6]
  F-actin: stress fibers
  Microtubule: radial array
  cell morphology: elongated
[2]; [7]
  F-actin: peripheral lammellipodia
  Microtubule: disorganized
  cell morphology: polarized
[3]; NIH-3T3 cells
  foci induction: able to induce foci
[3]; co-transformation with activated Ras, titrations
  effect on foci in co-transformation with activated Ras: synergizes with activated Ras
